Measured values reported in the RNAGym collection of RNA variant scans (doi:10.1073/pnas.2313332121).

B1: TPR t1 (parent)
chain: GACCAAUCUGCCCUCAGAGCUCGAGAACAUCUUCGGAUGCAGAGGAGGCAGGCUUCGGUGGCGCGAUAGCGCCAACGUCCUCAACCUCCAAUGCAUCCCACCACAUGAUGAUGCCUGAAGAGCCUUGGUUUUUUG

Variants of: B1
Experiment: polymerase ribozyme fitness, log enrichment relative to wild type (log ratio); higher = more active; in vitro selection for triplet polymerase activity
Outline: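 To select mutant libraries of each subunit of a heterodimeric triplet polymerase ribozyme, built by PCR and transcribed, each was annealed with a biotinylated primer, partner subunit and triplets, then incubated frozen at −7 °C. Extended constructs were gel-excised, captured on streptavidin beads and amplified by RT-PCR, in one round carried out in triplicate. Illumina sequencing of input and output libraries kept genotypes with ≥10 input reads and ≥1 read per output. Fitness is the base-2 logarithm of genotype enrichment relative to wild-type enrichment, from inverse-variance-weighted replicate averages.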

| Variant | polymerase ribozyme fitness (log ratio) |
| --- | --- |
| C64U G117C C123U | -4.94 |
| A6C U32A C64U A111G | -4.1 |
| G60A U112A G113C | -1.56 |
| G17U G52C G77U C123U | -2.34 |
| G44A A75U | -1.11 |
| G10U G48U | -0.243 |
| G23U G48U C62A C64A C86U C99A G117U | -7.32 |
| C4U C11A G44C C82G A121C G127A | -0.143 |
| C12G C15A A50C | -2.29 |
| U9C G69U U78G A103U | -1.88 |
| U7G C124U | 1.55 |
| G110C U130G | -6.34 |
| A26U C56G G69U | -2.73 |
| C49U C104U | -0.182 |
| C12U U116A | -1.04 |
| U9C G113A C114G | -0.741 |
| C73A C115U | -1.36 |
| G35U U59A | -6.05 |
| U21C U112G | -0.886 |
| U38C U112A | 1.08 |
| A26U C85U C123A | -3.83 |

| Variant | polymerase ribozyme fitness (log ratio) |
| --- | --- |
| C13U U112C G135U | 1.11 |
| U21A G23A C76G G113U | -7.66 |
| G47C U116C | -2.31 |
| G45A G71U | -0.591 |
| A41G C64U U81A | -2.25 |
| U9C U78G A103U | -5.95 |
| C4G C15U G47C C73U A105U G107U C123G U126A | -7.47 |
| U32C A37U U38A G48U U96G | -1.88 |
| C94G G120A | 0.357 |
| C20U C49U G71C A90U G117U | -6.09 |
| G39U C88U | -0.766 |
| C3U G71U C101G | -3.08 |
| C15G C40A C76G G77C G117C | -0.354 |
| G107U C123G | -2.37 |
| A50U G60A | -0.0812 |
| G36A C97A | -3.86 |
| A29U A84G U87G | -2.37 |
| A27C G48U | -4.11 |
| G58A A91C C101A | -1.1 |
| U7A C114A | -1.29 |
| G35C A83U A121G U126A | -4.11 |

| Variant | polymerase ribozyme fitness (log ratio) |
| --- | --- |
| A43U U92A U106A | -2.69 |
| C13G G57C U109A A111U | -4.71 |
| U38A G63C C85U | -2.4 |
| U14C U21A G61A G117C | -3.39 |
| A43G G45U U59A A66U | -5.27 |
| C80U G113C G135C | -2.92 |
| U7A C86G A90C | -1.43 |
| C13U C28U C40U A74U C124A | -1.32 |
| A5U A43G G48A C62U A103U G110U | -6.17 |
| G10A C13A C22A A46G C49A G122A | -6.21 |
| A6U A18U A74C C85G C115A U129G | -4.74 |
| C49U C72G G113U G117U | -6.76 |
| C64G C114G | -6.51 |
| C56G A90G G127C | -2.21 |
| G57U C99A C124A | -4.71 |
| C49A C62U C85U C124G | 1.34 |
| A27U U55G C56A G69C | -6.66 |
| C70G C124A G127U U132C | -0.524 |
| C114G U126G | -4.32 |
| A29G A43U G61U U116C G117U | -0.773 |
| G10U G36A | -0.638 |

| Variant | polymerase ribozyme fitness (log ratio) |
| --- | --- |
| C72G G127U | -1.1 |
| C11U A46G G51U C80U | -1.92 |
| C49G C62U A90U G113U | -4.27 |
| A111G G117A | -1.65 |
| G42A C89A A108G | -4.56 |
| C22U A41U C53U C56U G61U G110U A121C | -7.42 |
| U106A U109C | -3.27 |
| C40G C85A | -2.32 |
| A2C C76U U126A | -1.99 |
| G36U A43U | -2.65 |
| G25C C56U A68U A83G C123A C124G | -6.66 |
| A2C A37U G48A U54A C73A C79G A119U G128U | -5.61 |
| C11G G17A G71U U81A C85U G117C | -6.69 |
| C49A G61C G110U U125C | -4.57 |
| G39A A43U C70U C82U G113C U132C | -3.27 |
| A121G | 1.88 |
| C34U A41G C53U | -4.95 |
| G52A C79A | -0.667 |
| G36C G51A | -3.99 |
| C8U G47U A90G G113C | -2.16 |
| A6C U59G | -0.454 |
